Assay results reported in the supplement of paper PMC10567573.

B1: TRIM39 (parent)
chain: YPCVLATEGFTSGRHYWEVEVGDK

Variants of: B1
Experiment: protein stability index of a GFP-peptide fusion (GPS, HEK-293T) (PSI 1-6); higher = more stable
Details: c terminus: a fixed tail appended
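Also: lentivirally expressed fusions sorted by FACS into six bins by GFP to DsRed ratio, PSI derived from sequencing read proportions per bin multiplied by bin number.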

Protein stability index, by site and new letter:
E18: A 3.12 | F 1.81 | D 1.45 | G 2.82 | I 1.89 | K 1.73 | H 1.43
W17: C 3.22 | T 3.6 | Y 2.24 | E 3.84 | L 2.97 | P 3.54 | H 3.07 | V 2.44 | D 3.88 | F 2.41 | A 3.49 | R 2.88 | M 3.21 | S 3.62 | Q 3.68 | K 2.76 | N 3.77 | G 3.44 | I 2.95
F10: A 1.55 | K 1.4 | I 2.15 | H 1.86 | L 1.86 | T 2.49 | M 2.69 | P 2.12 | W 1.85 | G 2.48 | R 2.41 | Q 1.63 | E 2.77 | V 1.66 | N 2.34 | D 2.45 | S 1.9 | Y 2.26
H15: E 3.05 | Q 2.6 | A 2.61 | T 2.17 | Y 2.58 | L 1.56 | W 2.1 | C 2.2 | N 2.76 | V 2.27 | R 1.97 | M 1.32 | F 1.9 | K 2.06 | S 2.16 | I 1.22 | G 1.98 | D 2.93 | P 2.16
S12: L 1.97 | Q 1.66 | D 2.79 | I 2.33 | H 1.67 | P 1.81 | C 1.96 | W 1.98 | Y 1.68 | R 2.79 | V 1.6 | G 1.6 | M 3.54 | K 1.95 | F 1.34 | T 1.76 | A 2.15 | N 1.95
G9: M 1.66 | R 2.38 | T 2.03 | Q 2.04 | N 1.99 | W 1.96 | P 2.21 | S 1.81 | Y 2.22 | V 1.81
R14: L 2.45 | N 1.91 | C 1.79 | S 2.07 | H 1.71 | V 2.06 | Q 2.36 | F 1.81 | A 2.37 | M 1.66 | G 2.48 | P 2.32 | T 2.27 | E 3.04 | W 1.66 | D 2.66 | K 1.69 | I 2.17 | Y 1.95
T11: Y 3.04 | E 2.39 | F 2.55 | C 1.73 | L 1.89 | P 2.19 | V 1.44 | W 2.66 | I 2.59 | K 2.19 | N 2.67 | Q 1.72 | A 1.97 | S 1.58 | R 2.82 | M 1.73 | D 2.17 | G 2.09 | H 1.71
G13: Q 1.71 | D 2.24 | I 1.73 | H 1.46 | P 1.74 | F 1.56 | W 1.47 | Y 1.2 | R 2.09 | K 2.39 | E 1.87 | V 2.15 | S 2.03 | M 1.59 | C 1.91 | L 1.95 | A 1.48 | N 1.57 | T 1.72
Y16: M 2.45 | Q 2.16 | K 2.38 | E 2.6 | C 1.5 | F 1.2 | H 2.04 | D 3.52 | N 2.56 | I 2.33 | T 1.35 | A 2.38 | V 2.08 | W 4.12 | R 2.02 | P 1.78 | G 2.98 | L 1.76 | S 1.75
